Reference: paper PMC2175290 (The Journal of Cell Biology, 2000)

B1: untagged full-length Mex67p (natural protein)
chain: MSGFHNVGNINMMAQQQMQQNRIKISVRNWQNATMNDLINFISRNARVAVYDAHVEGPLVIGYVNSKAEAESLMKWNGVRFAGSNLKFELLDNNGASAGTSDTISFLRGVLLKRYDPQTKLLNLGALHSDPELIQKGVFSSISTQSKMFPAMMKLASTEKSLIVESVNLADNQLKDISAISTLAQTFPNLKNLCLANNQIFRFRSLEVWKNKFKDLRELLMTNNPITTDKLYRTEMLRLFPKLVVLDNVIVRDEQKLQTVYSLPMKIQQFFFENDALGQSSTDFATNFLNLWDNNREQLLNLYSPQSQFSVSVDSTIPPSTVTDSDQTPAFGYYMSSSRNISKVSSEKSIQQRLSIGQESINSIFKTLPKTKHHLQEQPNEYSMETISYPQINGFVITLHGFFEETGKPELESNKKTGKNNYQKNRRYNHGYNSTSNNKLSKKSFDRTWVIVPMNNSVIIASDLLTVRAYSTGAWKTASIAIAQPPQQQASVLPQVASMNPNITTPPQPQPSVVPGGMSIPGAPQGAMVMAPTLQLPPDVQSRLNPVQLELLNKLHLETKLNAEYTFMLAEQSNWNYEVAIKGFQSSMNGIPREAFVQF
B2: His6-Mtr2p (natural protein)
chain: MNTNSNTMVMNDANQAQITATFTKKILAHLDDPDSNKLAQFVQLFNPNNCRIIFNATPFAQATVFLQMWQNQVVQTQHALTGVDYHAIPGSGTLICNVNCKVRFDESGRDKMGQDATVPIQPNNTGNRNRPNDMNKPRPLWGPYFGISLQLIIDDRIFRNDFNGVISGFNYNMVYKPEDSLLKI

Columns and labels:
[1] = biological target: B2; assay: AUC
[2] = biological target: B1; assay: pull-down
[3] = biological target: T1, Mex67pΔC1/His6-Mtr2p complex (S. cerevisiae | yeast, UniProt Q99257;P34232); assay: pull-down
T1 sequence 1: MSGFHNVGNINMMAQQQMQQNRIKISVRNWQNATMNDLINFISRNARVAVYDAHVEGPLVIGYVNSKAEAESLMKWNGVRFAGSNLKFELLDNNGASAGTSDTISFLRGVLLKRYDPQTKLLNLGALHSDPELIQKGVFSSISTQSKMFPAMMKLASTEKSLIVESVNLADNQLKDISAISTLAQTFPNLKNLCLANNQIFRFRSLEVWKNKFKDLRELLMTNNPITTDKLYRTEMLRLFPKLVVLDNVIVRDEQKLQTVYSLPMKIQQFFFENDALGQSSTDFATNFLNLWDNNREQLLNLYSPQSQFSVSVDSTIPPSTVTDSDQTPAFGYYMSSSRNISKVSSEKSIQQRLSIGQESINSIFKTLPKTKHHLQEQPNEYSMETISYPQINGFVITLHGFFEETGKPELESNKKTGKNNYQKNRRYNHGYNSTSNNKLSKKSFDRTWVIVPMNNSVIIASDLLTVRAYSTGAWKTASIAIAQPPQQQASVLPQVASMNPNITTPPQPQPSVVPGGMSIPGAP
T1 sequence 2: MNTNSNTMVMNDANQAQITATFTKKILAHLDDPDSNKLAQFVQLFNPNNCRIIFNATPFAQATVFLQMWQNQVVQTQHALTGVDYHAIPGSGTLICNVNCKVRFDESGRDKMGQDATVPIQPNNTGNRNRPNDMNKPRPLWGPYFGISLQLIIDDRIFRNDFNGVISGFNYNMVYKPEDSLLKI

[4] = biological target: T2, Mex67p/His6-Mtr2p complex (S. cerevisiae | yeast, UniProt Q99257;P34232); assay: pull-down
T2 sequence 1: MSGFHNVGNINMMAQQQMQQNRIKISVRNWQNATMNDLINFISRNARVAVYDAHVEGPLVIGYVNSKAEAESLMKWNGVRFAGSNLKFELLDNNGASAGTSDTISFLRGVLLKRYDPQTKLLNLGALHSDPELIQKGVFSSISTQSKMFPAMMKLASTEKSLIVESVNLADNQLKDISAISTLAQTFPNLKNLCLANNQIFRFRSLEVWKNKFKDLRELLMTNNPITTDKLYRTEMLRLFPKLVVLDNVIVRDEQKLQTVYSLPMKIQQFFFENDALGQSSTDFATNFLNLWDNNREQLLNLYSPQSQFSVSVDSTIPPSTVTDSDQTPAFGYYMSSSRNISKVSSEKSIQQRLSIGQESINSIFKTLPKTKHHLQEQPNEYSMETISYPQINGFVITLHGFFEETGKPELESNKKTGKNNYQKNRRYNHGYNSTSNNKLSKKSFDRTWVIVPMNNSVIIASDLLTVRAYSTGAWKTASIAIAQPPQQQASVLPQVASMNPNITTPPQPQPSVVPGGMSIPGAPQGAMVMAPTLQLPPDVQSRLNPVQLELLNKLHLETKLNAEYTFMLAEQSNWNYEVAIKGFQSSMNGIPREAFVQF
T2 sequence 2: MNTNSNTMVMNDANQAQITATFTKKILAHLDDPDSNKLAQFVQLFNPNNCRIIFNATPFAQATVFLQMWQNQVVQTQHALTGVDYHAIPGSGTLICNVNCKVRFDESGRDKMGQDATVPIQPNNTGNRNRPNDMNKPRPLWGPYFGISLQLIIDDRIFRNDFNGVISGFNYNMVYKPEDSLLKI

Binder | stoichiometry N [1] | binding result [2] | binding result [3] | binding result [4]
B1 | 1 |  |  | 
B2 |  | binds |  | 
GST-FG_(Nup159) (domain or fragment) QSQSSSTFGAPSFGSSAFKIDLPSVSSTSTGVASSEQDATDPASAKPVFGKPAFGAIAKEPSTSEYAFGKPSFGAPSFGSGKSSVESPASGSAFGKPSFGTPSFGSGNSSVEPPASGSAFGKPSFGTPSFGSGNSSAEPPASGSAFGKPSFGTSAFGTASSNETNSGSIFGKAAFGSSSFAPANNELFGSNFTISKPTVDSPKEVDSTSPFPSSGDQSEDESKSDVDSSSTPFGTKPNTSTKPKTNAFDFGSSSFGSGFSKALESVGSDTTFKFGTQASPFSSQLGNKSPFSSFTKDDTENGSLSKGSTSEINDDNEEHESNGPNVSGNDLTDSTVEQTSSTRLPETPSDEDGEVVEEEAQKSPIGKLTETIKKSANIDMAGLKNPVFGNHVKAKSESPFSAFATNITKPSSTTPAFSFGNSTMNKSNTSTVSPMEEADTKETS |  |  | binds | binds
GST-GLFG_(Nup116) (domain or fragment) YQAGRKFGTSQNGTGTTFNNPQGTTNTGFGIMGNNNSTTSATTGGLFGQKPATGMFGTGTGSGGGFGSGATNSTGLFGSSTNLSGNSAFGANKPATSGGLFGNTTNNPTNGTNNTGLFGQQNSNTNGGLFGQQQNSFGANNVSNGGAFGQVNRGAFPQQQTQQGSGGIFGQSNANANGGAFGQQQGTGALFGAKPASGGLFGQSAGSKAFGMNTNPTGTTGGLFGQTNQQQSGGGLFGQQQNSNAGGLFGQNNQSQNQSGLFGQQNSSNAFGQPQQQGGLFGSKPAGGLFGQQQGASTFASGNAQNNSIFGQNNQQQQSTGGLFGQQNNQSQSQPGGLFGQTNQNNNQPFGQNGLQQPQQNNSLFGAKPTGFGNTSLFSNSTTNQSNGISGNNLQQQSGGLFQNKQQPASGGLFGSKPSNTVGGGLFGNNQVANQNNPASTSGGLFGSKPATGSLFGGTNSTAPNASSGGIFGSNNASNTAATTNSTGLFGNKPVGAGASTSAGGLFGNNNNSSLNNSNGSTGLFGSNNTSQSTNAGGLFQNNTSTNTSGGGLFSQPSQSMAQSQNALQQ |  |  | binds | binds
